Assay results taken from doi:10.1101/2025.01.26.634877 (bioRxiv, 2025).

Molecular target: the molecule itself
Assay: light scattering

B1: Recombinant mouse neurofilament light chain protein, wild type (NfL-WT) (natural protein, UniProt P08551 1-543, looked up)
chain: MSSFGYDPYFSTSYKRRYVETPRVHISSVRSGYSTARSAYSSYSAPVSSSLSVRRSYSSSSGSLMPSLENLDLSQVAAISNDLKSIRTQEKAQLQDLNDRFASFIERVHELEQQNKVLEAELLVLRQKHSEPSRFRALYEQEIRDLRLAAEDATNEKQALQGEREGLEETLRNLQARYEEEVLSREDAEGRLMEARKGADEAALARAELEKRIDSLMDEIAFLKKVHEEEIAELQAQIQYAQISVEMDVSSKPDLSAALKDIRAQYEKLAAKNMQNAEEWFKSRFTVLTESAAKNTDAVRAAKDEVSESRRLLKAKTLEIEACRGMNEALEKQLQELEDKQNADISAMQDTINKLENELRSTKSEMARYLKEYQDLLNVKMALDIEIAAYRKLLEGEETRLSFTSVGSITSGYSQSSQVFGRSAYSGLQSSSYLMSARSFPAYYTSHVQEEQTEVEETIEATKAEEAKDEPPSEGEAEEEEKEKEEGEEEEGAEEEEAAKDESEDTKEEEEGGEGEEEDTKESEEEEKKEESAGEEQVAKKKD
modifications: native post-translational phosphorylation (varying levels, sites not given); N-terminal carbamoylation observed from the urea conditions
B1: binds.
